Measured values published in patent publication US7135170B2 (ZymoGenetics, Inc., priority 2002, dated 2006).

T1: zcyto20 (Homo sapiens, UniProt Q8IZJ0)
T1 sequence (Q8IZJ0 26-200): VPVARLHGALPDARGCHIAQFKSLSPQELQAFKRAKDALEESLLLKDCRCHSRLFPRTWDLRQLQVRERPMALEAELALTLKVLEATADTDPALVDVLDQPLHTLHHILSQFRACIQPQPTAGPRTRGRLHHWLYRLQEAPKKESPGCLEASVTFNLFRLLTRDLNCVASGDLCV

T2: zcyto24 (Mus musculus, UniProt Q4VK74)
T2 construct: The mature polypeptide comprises amino acid residue 29 (Asp) to amino acid residue 202 (Val)
T2 sequence (Q4VK74 20-193): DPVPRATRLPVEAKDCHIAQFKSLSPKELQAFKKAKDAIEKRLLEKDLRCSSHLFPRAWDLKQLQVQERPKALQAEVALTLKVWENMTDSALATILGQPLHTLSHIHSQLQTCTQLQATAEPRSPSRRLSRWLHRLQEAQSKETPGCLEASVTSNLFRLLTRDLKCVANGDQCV


Tests used:
zcyto20 = biological target: T1, zcyto20; assay: Soluble receptor inhibition of ligand-induced ISRE signaling, 293 HEK cells overexpressing zcytor19: zcyto20; assay type: cell-based; conditions: for Percent Inhibition of Ligand-induced ISRE Signaling by Soluble Receptors: ligand Zcyto20 10 ng/ml, soluble receptor 10 micrograms/ml, 4-hour; for inhibition of zcyto20, zcyto21 and zcyto24-induced signaling: text summary over the three ligands
Excerpt: (§1) A signal transduction reporter assay can be used to show the inhibitor properties of zcytor19-Fc4 homodimeric and zcytor19-Fc/CRF2-4-Fc heterodimeric soluble receptors on zcyto20, zcyto21and zcyto24 signaling. Human embryonal kidney (HEK) cells overexpressing the zcytor19 receptor are transfected with a reporter plasmid containing an interferon-stimulated response element (ISRE) driving transcription of a luciferase reporter gene. Luciferase activity following stimulation of transfected cells with ligands (including zcyto20 (SEQ ID NO:18), zcyto21 (SEQ ID NO:20), zcyto24 (SEQ ID NO:8)) reflects the interaction of the ligand with soluble receptor.
(§2) 293 HEK cells overexpressing zcytor19 were transfected as follows: 700,000 293 cells/well (6 well plates) were plated approximately 18 h prior to transfection in 2 milliliters DMEM+10% fetal bovine serum. Per well, 1 microgram pISRE-Luciferase DNA (Stratagene) and 1 microgram pIRES2-EGFP DNA (Clontech,) were added to 6 microliters Fugene 6 reagent (Roche Biochemicals) in a total of 100 microliters DMEM. This transfection mix was added 30 minutes later to the pre-plated 293 cells. Twenty-four hours later the transfected cells were removed from the plate using trypsin-EDTA and replated at approximately 25,000 cells/well in 96 well microtiter plates. Approximately 18 h prior to ligand stimulation, media was changed to DMEM+0.5% FBS.
(§3) The signal transduction reporter assays were done as follows: Following an 18 h incubation at 37° C. in DMEM+0.5% FBS, transfected cells were stimulated with 10 ng/ml zcyto20, zcyto2l or zcyto24 and 10 micrograms/ml of the following soluble receptors; human zcytor19-Fc homodimer, human zcytor19-Fc/human CRF2-4-Fc heterodimer, human CRF2-4-Fc homodimer, murine zcytor19-Ig homodimer. Following a 4-hour incubation at 37° C., the cells were lysed, and the relative light units (RLU) were measured on a luminometer after addition of a luciferase substrate. The results obtained are shown as the percent inhibition of ligand-induced signaling in the presence of soluble receptor relative to the signaling in the presence of PBS alone.

zcyto21 = zcyto21 (Homo sapiens, UniProt Q8IU54); assay: Soluble receptor inhibition of ligand-induced ISRE signaling, 293 HEK cells overexpressing zcytor19: zcyto21; assay type: cell-based; conditions: ligand Zcyto21 10 ng/ml; soluble receptor 10 micrograms/ml; 4-hour
Excerpt: as §1, §2, §3

zcyto24 = biological target: T2, zcyto24; assay: Soluble receptor inhibition of ligand-induced ISRE signaling, 293 HEK cells overexpressing zcytor19: zcyto24; assay type: cell-based; conditions: ligand Zcyto24 10 ng/ml; soluble receptor 10 micrograms/ml; 4-hour
Excerpt: as §1, §2, §3

[1] = test system: ISG gene expression (OAS, Pkr, Mx1) in liver, spleen and blood; assay: ISG gene expression in liver, spleen and blood of injected mice (real-time PCR); assay type: in vivo, mouse; conditions: liver, 100 μg i.v.; for PKR: mice (Naive 3.70); for OAS: mice (Naive 6.60); for Mx1: mice (Naive 10.98)
Experimental: Mice were sacrificed at various time points (1 hr-48 hr). Spleens and livers were isolated from mice, and RNA was isolated. RNA was also isolated from the blood cells. The cells were pelleted and RNA isolated from pellets using RNAEasy®-kit (Qiagen). RNA was treated with DNase (Amicon) to rid RNA of any contaminating DNA. cDNA was generated using Perkin-Elmer RT mix (Perkin-Elmer). ISG gene induction was measured by real-time PCR using primers and probes specific for mouse OAS, Pkr and Mx1. To obtain quantitative data, HPRT real-time PCR was duplexed with ISG PCR. A standard curve was calculated using known amounts of IFN-stimulated mouse PBLs. All data are shown as expression relative to internal HPRT expression.
Results shown are fold expression relative to HPRT gene expression. […] The data shown is the average expression from 5 different animals/group.
Mice were injected with 100 μg of proteins i.v. Data shown is fold expression over HPRT expression from livers of mice. Similar data was obtained from blood and spleens of mice.

Molecule	Percent Inhibition of Ligand-induced ISRE Signaling by Soluble Receptors (zcyto20)	inhibition of zcyto20, zcyto21 and zcyto24-induced signaling (zcyto20)	Percent Inhibition of Ligand-induced ISRE Signaling by Soluble Receptors (zcyto21)	Percent Inhibition of Ligand-induced ISRE Signaling by Soluble Receptors (zcyto24)	also measured
HuCRF2-4-Fc: human CRF2-4-Fc homodimeric soluble receptor	80%	No significant effects	79%	82%	–
Huzcytor19-Fc/huCRF2-4-Fc: human zcytor19-Fc/human CRF2-4-Fc heterodimeric soluble receptor	16%	–	16%	47%	–
Muzcytor19-Ig: murine zcytor19-Ig homodimeric soluble receptor (protein, left off: small tags and cut ends, murine zcytor19-Ig homodimeric soluble receptor) RPRLAPPRNVTLFSQNFTVYLTWLPGLGSPPNVTYFVTYQSYIKTGWRPVEHCAGIKALVCPLMCLKKLNLYSKFKGRVQAASAHGRSPRVESRYLEYLFDVELAPPTLVLTQMEKILRVNATYQLPPCMPSLELKYQVEFWKEGLGSKTLFPDTPYGQPVQIPLQQGASRRHCLSARTVYTLIDIKYSQFSEPSCIFLEAPGDKRA	91%	No significant effects	103%	89%	–
Huzcytor19-Fc: human zcytor19-Fc homodimeric soluble receptor (protein, left off: a dimerising Fc or GST, human zcytor19-Fc homodimeric soluble receptor) RPRLAPPQNVTLLSQNFSVYLTWLPGLGNPQDVTYFVAYQSSPTRRRWREVEECAGTKELLCSMMCLKKQDLYNKFKGRVRTVSPSSKSPWVESEYLDYLFEVEPAPPVLVLTQTEEILSANATYQLPPCMPPLDLKYEVAFWKEGAGNKTLFPVTPHGQPVQITLQPAASEHHCLSARTIYTFSVPKYSKFSKPTCFLLEVPEAN	92%	–	45%	90%	–
MetIL-29-PEG: E. coli derived IL-29 with N-terminal Met, conjugated to PEG (conjugate, UniProt Q8IU54 20-200, looked up, N-terminal Met; PEG, E. coli derived IL-29 with N-terminal Met, conjugated to PEG) Interferon lambda-1: GPVPTSKPTTTGKGCHIGRFKSLSPQELASFKKARDALEESLKLKNWSCSSPVFPGNWDLRLLQVRERPVALEAELALTLKVLEAAAGPALEDVLDQPLHTLHHILSQLQACIQPQPTAGPRPRGRLHHWLHRLQEAPKKESAGCLEASVTFNLFRLLTRDLKYVADGNLCLRTSTHPEST	–	–	–	–	PKR ([1]; 3 hr): 18.24 fold expression over HPRT expression; OAS ([1]; 3 hr): 91.29 fold expression over HPRT expression; Mx1 ([1]; 3 hr): 537.51 fold expression over HPRT expression; PKR ([1]; 6 hr): 13.93 fold expression over HPRT expression; OAS ([1]; 6 hr): 65.93 fold expression over HPRT expression; Mx1 ([1]; 6 hr): 124.99 fold expression over HPRT expression; PKR ([1]; 12 hr): 4.99 fold expression over HPRT expression; OAS ([1]; 12 hr): 54.04 fold expression over HPRT expression; Mx1 ([1]; 12 hr): 33.58 fold expression over HPRT expression; PKR ([1]; 24 hr): 3.77 fold expression over HPRT expression; OAS ([1]; 24 hr): 20.81 fold expression over HPRT expression; Mx1 ([1]; 24 hr): 35.82 fold expression over HPRT expression
